The supplement of paper PMC9170038

Test system: MS2 coat protein
Assay: apparent KD of MS2 coat protein; designed switch direction (-1 OFF switch, 1 ON switch): 1; higher = weaker reporter binding
In short: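 On Illumina chips, designed RNA switches with common flanks were made by stalled E. coli RNA polymerase. Titrations with SNAP-549-labelled MS2 coat protein, doubling from 0.7 or 1.5 nM to 3 µM, were done with no input, with 200 uM small-molecule ligand, or with an oligonucleotide input. Apparent KD is the median per design over clusters, from curve fits of normalised cluster fluorescence.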

[1] = input ligand: microRNA oligo, concentration not stated
[2] = Eterna round: R95, input ligand: FMN 200 uM
[3] = Eterna round: R95, input ligand: microRNA oligo, concentration not stated
[4] = Eterna round: R95, input ligand: none

| Sequence | apparent KD of MS2 coat protein (input ligand: FMN 200 uM) [nM] | apparent KD of MS2 coat protein [1] [nM] | apparent KD of MS2 coat protein (input ligand: none) [nM] | apparent KD of MS2 coat protein [2] [nM] | apparent KD of MS2 coat protein [3] [nM] | apparent KD of MS2 coat protein [4] [nM] |
| --- | --- | --- | --- | --- | --- | --- |
| UUCAAUGGGAUAGGAUAUCCUGCGGCGAGGCGUGGAGAAGGGUCAAGUACAUGAGGAUCACCCAUGUUUCGGAAAUAUUCCGAG [Eternabot solution 29] (Eterna round: R96, puzzle: Same State NG 1) | 121 | 41.5 | 125 | – | – | – |
| UGUUGUUAAUUAGGAUAUGGUCACAUGAGGAUCACCCAUGUAAUGUCGAUGCUAUGUGGACACGAUCAGAAGGAAUGGCUAACA [SameState NG2 #93] (Eterna round: R96, puzzle: Same State NG 2) | 21.3 | 69.7 | 102 | – | – | – |
| GCUUCGGCGGUAGGAUAUCUAGGAUAUGGGAAGAGCUAAGCUUGGAAGUCACUUCACCCAGAAGGAGAGAAGGACACCUUCGGG [pwkr ssNG2 2FMN + F9.4] (Eterna round: R96, puzzle: Same State NG 2) | 230 | 3.87 | 47 | – | – | – |
| UUGCAGUCAGGUGAGGAUAUCAUGAAUUAAACAUGAGGAUCACCCAUGUGCUGCCUUGCAGCAUAUGAGAAGGCACCUGGCUGCU [JL-ss2-3.01 Brourd Mod] (puzzle: Same State 2) | – | – | – | 65.2 | 185 | 640 |
| GUAUCUACAGGUUGCAAUGCUCGUCGGAUACAUGAGGAUCACCCAUGUUAUAGCCCUGUGCUUGCGCAGGGCUGAUU [Sensor for hsa-mir-208a ( MOD of Tearor )] (puzzle: Sensor for hsa-mir-208a) | – | – | – | 46.8 | 39.4 | 49.5 |
| CGUCCAGCCUGAGCUGGACAAAAGCAUGUACAUGAGGAUCACCCAUGUUCAUGUACAAGCUUUUUGCUCGUCUUAAC [salish99_208a_r3_039] (puzzle: Sensor for hsa-mir-208a) | – | – | – | 660 | 18.2 | 616 |
| AUACCAUCAGGAGGAUAUGGCACCUUAUUGGUGCCAGAAGGUCUAACAUGAGGAUCACCCAUGUGGGAGUGGUCUAAUGACCAC [Eli NG1ss - 86] (Eterna round: R96, puzzle: Same State NG 1) | 73.7 | 72.3 | 91 | – | – | – |
| GUAUAACAUGAGGAUCACCCAUGUCAUCUAAGUCGAGGAUAUGGGCAAAUAUAAUAAGAACCAGAAGGCGAAUAUG [Mat - Same State 1 - Mod of UCT - D34] (puzzle: Same State 1) | – | – | – | 57.8 | 111 | 119 |
| AAUUAAUUAAUACAUGAGGAUCACCCAUGUAAUUAUUAGAUCUAGGAUAUCAGCUCGAAUAGAGCUGAGAAGGAGAUCACAUGU [SSNG3/18-B1] (Eterna round: R96, puzzle: Same State NG 3) | – | 14.5 | – | – | – | – |
| AAGUAGCGAGAGCUACACAAAAAGUUUGUACAUGAGGAUCACCCAUGUUGUACAAGCUUUUUGCUCGUCUUAAAAAA [Mat - Sensor - JL mod - D14] (Eterna round: R96, puzzle: Sensor for hsa-mir-208a) | 77.4 | 11.6 | 84.1 | – | – | – |
| GGUGCCAAUAAAGCCUACAUGAGGAUCACCCAUGUAUGUAGGCAGGAUAUCGUUUGCAAAGCAAACGAGAAGGGCUGAGGCACC [Mat - Same State NG 3 - JL Mod - D52] (Eterna round: R96, puzzle: Same State NG 3) | 18.4 | 39.8 | 38.8 | – | – | – |
| GCAACAGGGUGAGGAUAUCUAUGGACCGACCAUAGAGAAGGCACUGGAAACACAUGAGGAUCACCCAUGUGCCAAAGAACAGUA [Eternabot solution 9] (Eterna round: R96, puzzle: Same State NG 1) | 17.5 | 22.4 | 28.4 | – | – | – |
| AGGCUGAGUCGAGGAUAUUAUGGAUCCUCUAAUACAUGAGGAUCACCCAUGUAAUUAAUUAUACAUGAGAAGGUGACUCAGCCA [SSNG2/12-B3] (Eterna round: R96, puzzle: Same State NG 2) | 612 | 129 | 280 | – | – | – |
| AACCCAUCGGGAGGAUAUGGCACCUUAUUGGUGCCAGAAGGUCCAACAUGAGGAUCACCCAUGUGGGAGCCGUCGAAAGACGGC [Fiskers NG1ss - 7] (Eterna round: R96, puzzle: Same State NG 1) | 270 | 66.5 | 293 | – | – | – |
| GGAGGACAUGAGGAUCACCCAUGUGGAUGAUCGCUAGGAUAUGCGUGCAGGAAGAGUGGUGCAGAAGGAGUGGGAU [JR_SS1_Sub048] (puzzle: Same State 1) | – | – | – | – | 348 | – |
| GCUAGAAUUAAAGCCAACAUGAGGAUCACCCAUGUAUGUUGGUAGGAUAUCGUUUGCUUUGCAAACGAGAAGGGCUAAACUAGC [JL SSNG3 1.06] (Eterna round: R96, puzzle: Same State NG 3) | 78.3 | 58.5 | 73.1 | – | – | – |

| Sequence | apparent KD of MS2 coat protein (input ligand: FMN 200 uM) [nM] | apparent KD of MS2 coat protein [1] [nM] | apparent KD of MS2 coat protein (input ligand: none) [nM] | apparent KD of MS2 coat protein [2] [nM] | apparent KD of MS2 coat protein [3] [nM] | apparent KD of MS2 coat protein [4] [nM] |
| --- | --- | --- | --- | --- | --- | --- |
| AAGGUCUUCGUACAGGAUAUGCACUUGUGCACAUGAGGAUCACCCAUGUGGGAAAAGGUCACAGGGCAGAAGGGUAUUUAUAAAA [Erriti] (puzzle: Same State 2) | – | – | – | 39.4 | 66.6 | 103 |
| CGUCCAGCCUGAGCUGGACAAAAGCAUGUACAUGAGGAUCACCCAUGUUCAUGUACAAGCUUUUUGCUCGUCUUAGG [salish99_208a_r3_074] (puzzle: Sensor for hsa-mir-208a) | – | – | – | 593 | 20.1 | 744 |
| UUGAAGAAUUAAGGAUAUUGAAUACAUAUGUUAAACAUGAGGAUCACCCAUGUGGGUUGCGGUAUCGAGAAGGUAAAUUACUAG [Mat - same State NG 2 - JL mod - D80] (Eterna round: R96, puzzle: Same State NG 2) | – | 60.1 | – | – | – | – |
| GGUGGCGAAAGCGACAUGAGGAUCACCCAUGUCAUCGGAGGGCAGGAUAUCCGGCGAAAGCCGAAGGAGAAGGGUCGAAAAGAA [ssng3v2 b] (Eterna round: R96, puzzle: Same State NG 3) | 62.4 | 25.8 | 43.6 | – | – | – |
| GCUCGAAUCACAGCCAACAUGAGGAUCACCCAUGUAUGUUGGUAGGAUAUCGUUUCUAAGGGAAACGAGAAGGGCCGAACGAGC [SameState NG3 #10] (Eterna round: R96, puzzle: Same State NG 3) | 171 | 151 | 163 | – | – | – |
| GAUUAACAUGAGGAUCACCCAUGUCGUUAUAUGGGAGGAUAUACGUGGACCGUAGUCCGCGUAGAAGGCCUAAUUG [Mat - Same State 1 - Mod of JL - D23] (Eterna round: R96, puzzle: Same State 1) | 67.3 | 115 | 262 | – | – | – |
| GUUACAUGAGGAUCACCCAUGUAUGUGUGGGAGUAAGUGUCUUAGGAUAUCUGUUAUUUAAUUUGAGAGAAGGAAGAUUGUUGU [JMF's solution 47] (Eterna round: R96, puzzle: Same State NG 3) | 134 | 71.7 | 89.1 | – | – | – |
| AAAAAAAAGUCAGGAUAUGAAUGGAAAGUACAUGAGGAUCACCCAUGUUAUGGAAAAAAAAAACGUUAGAAGGGAUAAAAAAAA [AK SSNG2-V2-1] (Eterna round: R96, puzzle: Same State NG 2) | 61.3 | 90.2 | 62.3 | – | – | – |
| AAAGAACAUGAGGAUCACCCAUGUGGAAGAGGCACAGGAUAUCACCUCGCAAGUGCAAGGUGAGAAGGGUGAUGAU [Islaonen] (puzzle: Same State 1) | – | – | – | 123 | 425 | 205 |
| UAGAGAGGAAGCGAGGAUAUCGUGUGAGGUACAUGAGGAUCACCCAUGUUUGAUGUUGAGAGAGGCGAGAAGGCGCAGGAGAUUA [JR_SS2_Sub084] (puzzle: Same State 2) | – | – | – | 34.1 | 26.6 | 35.6 |
| UAUAUUAUGGUAGGAUAUCUAGGAUAUGGGAAGAGCUAAGCUUGGAAGUCACUUCACCCAGAAGGAGAGAAGGACCAUAAUAUU [pwkr ssNG2 2FMN + F9.5] (Eterna round: R96, puzzle: Same State NG 2) | 105 | 240 | 76.7 | – | – | – |
| UGGUACAUGGGAGGAUAUCAUGUAGACACAUGAGGAUCACCCAUGUCGAUGGAGACAUCGGAGAUUGAGAAGGCCCAUGUACCU [JL SSNG1 3.55] (Eterna round: R96, puzzle: Same State NG 2) | 18.6 | 291 | 647 | – | – | – |
| AAGAAACAUGAGGAUCACCCAUGUAGAAAUAUGGGAGGAUAUACGAGGACGAAAGUCAAAGUAGAAGGCCUAAGAA [Mat - Same State 1 - Meechl mod - D130] (Eterna round: R96, puzzle: Same State 1) | 21.4 | 54.5 | 63.8 | – | – | – |
| GUGGUGUAGAUACAGGAUAUGUUGCUCGUAACAUGAGGAUCACCCAUGUAUCUAUGAGAUAAAAUGCAGAAGGGUGCACACCACU [Mat - Same State 2 - Mod of UCT - D75] (puzzle: Same State 2) | – | – | – | – | 245 | – |
| AAUAUAUUAAGUGAGGAUAUCGAGGAAAAAACAUGAGGAUCACCCAUGUGGGUAAAAAAAAAAAGUGAGAAGGUGCUUAAUAUAU [Samwise Clockwise 10 - Jieux - Same State 2] (Eterna round: R96, puzzle: Same State 2) | 34.9 | 40.1 | 69.1 | – | – | – |
